T1: GST-Dsl1p (Saccharomyces cerevisiae, UniProt P53847)
T1 construct: when introduced into full length GST-Dsl1p; made in house; host or cells: E. coli (BL21DE3 or C41DE3)
T1 sequence (P53847 1-754): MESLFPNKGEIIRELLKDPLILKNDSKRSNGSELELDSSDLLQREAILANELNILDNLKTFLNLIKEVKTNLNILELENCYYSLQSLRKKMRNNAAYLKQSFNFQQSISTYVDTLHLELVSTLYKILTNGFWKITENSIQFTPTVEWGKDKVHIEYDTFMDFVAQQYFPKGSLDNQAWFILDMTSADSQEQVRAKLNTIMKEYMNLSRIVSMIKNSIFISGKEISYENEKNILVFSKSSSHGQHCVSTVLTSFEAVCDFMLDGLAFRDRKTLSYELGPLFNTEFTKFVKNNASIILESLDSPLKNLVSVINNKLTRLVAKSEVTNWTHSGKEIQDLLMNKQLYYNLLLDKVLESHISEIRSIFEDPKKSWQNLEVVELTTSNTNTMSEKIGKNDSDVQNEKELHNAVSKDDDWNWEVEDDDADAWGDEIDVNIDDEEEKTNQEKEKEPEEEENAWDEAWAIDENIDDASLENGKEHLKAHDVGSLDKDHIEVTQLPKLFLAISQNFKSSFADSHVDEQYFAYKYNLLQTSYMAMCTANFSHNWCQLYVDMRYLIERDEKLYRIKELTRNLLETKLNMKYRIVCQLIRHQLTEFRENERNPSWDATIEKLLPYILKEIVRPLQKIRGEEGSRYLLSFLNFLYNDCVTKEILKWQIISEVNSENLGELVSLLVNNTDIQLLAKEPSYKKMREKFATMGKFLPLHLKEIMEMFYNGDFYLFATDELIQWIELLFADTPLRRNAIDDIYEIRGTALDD

T2: GST-Dsl1p (S. cerevisiae (yeast), UniProt P53847 1-754)
T2 construct: Made in E. coli and immobilised on glutathione-Sepharose 4B; also called GST-tagged Dsl1p; full length GST-Dsl1p; not shown: glutathione S-transferase (GST) encoded by pGEX-TT (pGEX-2T with modified polylinker); placement and linker residues not
T2 sequence (looked up): T1 sequence (P53847 1-754)

B1: 13-mer peptide representing residues 242 to 254 of δ-COP, synthesized on a cellulose membrane (peptide)
peptide: RAGHSATGGMKLG
notes: A spot on a peptide array of 13-mers that overlap by 10 residues and span aa 191-302; also called R-type-peptide

Columns and labels:
GST-Dsl1p [1] = biological target: T1, GST-Dsl1p; experiment: peptide spot overlay assay: 13-mer δ-COP peptides on cellulose membrane; type: binding; conditions: 13-mer peptides spanning amino acids 191-302 of δ-COP; detection with anti-Dsl1p antibodies
Description: To further delineate the Dsl1p binding domain in δ-COP 13-mer peptides spanning amino acids 191-302 of δ-COP were synthesized on a cellulose membrane (overlap in sequence by 10 amino acids; Jerini; Berlin, Germany) and probed with to GST-Dsl1p. Anti-Dsllp antibodies were used to detect bound GST-Dsl1p. […] We cannot exclude that peptides from position 248 to 270 also bind to Dsl1p since anti-Dsl1 antibody alone gave already a weak signal with peptides derived from this region. […] To this resin we applied crude extract of E. coli cells producing a chimeric protein consisting of GST and the δ-COP binding domain (GST-L4, "WxW"; L4 = D-type-polypeptide; SED ID NO 1 ([…]-NIDDEEEKT)). After washing thoroughly, bound proteins were eluted and analyzed by SDS-PAGE followed by Coomassie staining. […]
To analyze the Ds11p binding region within the Ret2 protein overlapping 13-mer peptides (overlap 10 residues each) spanning the region between residue 191 and 302 were directly synthesized on a cellulose membrane (Jerini; Berlin, Germany). […] After 2 h incubation with purified GST-Ds11p in blocking buffer, the membrane was washed three times with Tris/HCl-buffer and bound GST-Ds11p was detected by using α-Dsl1p antibodies and the ECL detection system (AmershamPharmaciaBiotech).

GST-Dsl1p [2] = biological target: T2, GST-Dsl1p; experiment: peptide spot overlay on cellulose membrane, detected with anti-Dsl1p antibodies

Molecule	signal of bound GST-Dsl1p (GST-Dsl1p [1])	binding result (GST-Dsl1p [2])
R-type-peptide: peptide representing residues 242 to 254 of δ-COP, RAGHSATGGMKLG	strongest signal	–
B1	–	binds
